From US20190062420A1 (Janssen / Centocor, published 2019)

T1: human FcγRIIB (NM_004001) expressed on cells (human, UniProt P31994 43-310)
T1 sequence: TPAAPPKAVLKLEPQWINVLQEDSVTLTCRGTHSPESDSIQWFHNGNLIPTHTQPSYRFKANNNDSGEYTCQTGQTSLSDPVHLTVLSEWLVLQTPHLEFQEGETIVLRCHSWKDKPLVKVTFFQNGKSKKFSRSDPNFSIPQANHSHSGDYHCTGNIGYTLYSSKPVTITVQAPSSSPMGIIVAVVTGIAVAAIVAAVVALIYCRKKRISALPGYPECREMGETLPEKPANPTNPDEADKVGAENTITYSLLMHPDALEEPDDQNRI

T2: FcγRIIB protein (human, UniProt P31994 43-217, biotinylated (SureLINK Biotin Kit) in the ELISA of Example 1)
T2 sequence: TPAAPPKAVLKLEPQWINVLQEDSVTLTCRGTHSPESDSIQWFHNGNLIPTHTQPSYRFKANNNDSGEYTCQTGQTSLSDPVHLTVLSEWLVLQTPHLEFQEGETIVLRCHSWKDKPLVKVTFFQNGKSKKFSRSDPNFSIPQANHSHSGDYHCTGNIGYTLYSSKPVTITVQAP

T3: FcγRIIA protein (human, UniProt P12318 36-217, biotinylated (SureLINK Biotin Kit) in the ELISA of Example 1)
T3 sequence: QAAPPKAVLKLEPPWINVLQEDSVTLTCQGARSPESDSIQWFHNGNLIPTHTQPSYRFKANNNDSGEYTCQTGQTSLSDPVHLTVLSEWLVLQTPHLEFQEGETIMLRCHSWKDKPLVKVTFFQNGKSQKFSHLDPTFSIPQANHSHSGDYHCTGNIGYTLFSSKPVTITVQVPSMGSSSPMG

T4: human FcγRIIA (NM_021642) expressed on cells (human, UniProt P12318 36-317)
T4 sequence: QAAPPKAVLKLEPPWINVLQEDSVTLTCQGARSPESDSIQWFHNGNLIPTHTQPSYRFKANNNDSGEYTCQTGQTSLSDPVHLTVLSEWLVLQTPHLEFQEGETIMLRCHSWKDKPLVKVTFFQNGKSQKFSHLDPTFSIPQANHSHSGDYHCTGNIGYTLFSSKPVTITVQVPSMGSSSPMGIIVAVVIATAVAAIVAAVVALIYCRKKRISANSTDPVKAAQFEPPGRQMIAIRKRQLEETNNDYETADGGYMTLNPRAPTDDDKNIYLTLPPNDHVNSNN

T5: human OX40 expressed on HEK-Blue: OX40 cells (human, UniProt P43489 29-277)
T5 construct: also called CD134
T5 sequence: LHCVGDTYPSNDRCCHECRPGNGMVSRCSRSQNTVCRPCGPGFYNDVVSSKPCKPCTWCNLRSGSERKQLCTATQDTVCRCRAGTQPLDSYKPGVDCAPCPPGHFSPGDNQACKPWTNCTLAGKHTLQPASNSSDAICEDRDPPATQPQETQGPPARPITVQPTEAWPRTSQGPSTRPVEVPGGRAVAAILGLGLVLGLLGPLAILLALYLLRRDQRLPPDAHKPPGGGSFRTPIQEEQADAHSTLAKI


Tests used:
[1] = molecular target: T6, human FcγRI (NM_000566) expressed on cells (human, UniProt P12314 16-374); test: flow cytometry; Expi293F cells transfected with FcγRI
T6 construct: Transiently expressed on Expi293F cells
T6 sequence (P12314 16-374 limits assumed): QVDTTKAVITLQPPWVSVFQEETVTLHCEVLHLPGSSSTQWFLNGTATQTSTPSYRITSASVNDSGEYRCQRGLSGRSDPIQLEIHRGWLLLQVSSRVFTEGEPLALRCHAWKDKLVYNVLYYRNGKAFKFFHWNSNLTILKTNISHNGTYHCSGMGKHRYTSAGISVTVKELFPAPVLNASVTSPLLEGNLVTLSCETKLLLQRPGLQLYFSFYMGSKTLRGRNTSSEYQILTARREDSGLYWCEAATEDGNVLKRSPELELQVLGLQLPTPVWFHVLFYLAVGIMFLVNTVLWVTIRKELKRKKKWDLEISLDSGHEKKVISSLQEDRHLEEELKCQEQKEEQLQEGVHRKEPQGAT
Method: (§1) Plasmids expressing cDNAs encoding human FcγRI (NM_000566) (SEQ ID NO: 44), FcγRIIA (NM_021642) (SEQ ID NO: 2), FcγRIIB (NM_004001) (SEQ ID NO: 3), and FcγRIIIA (NM_000569) (SEQ ID NO: 45) (Origene) were transiently transfected into Expi293F cells by ExpiFectamine293 transfection kit (Life Technologies). Flow cytometry assays were performed 48 h after transfection.
(§2) 2×10⁵ cells per well were seeded in 96-well plate and blocked in BSA Stain Buffer (BD Biosciences, San Jose, USA) for 30 min at 4° C. Cells were incubated with test mAbtyrin on ice for 1.5 h at 4° C. After being washed twice with BSA stain buffer, the cells were incubated with R-PE labeled anti-human or anti-mouse IgG secondary antibody (Jackson Immunoresearch Laboratories) for 45 min at 4° C. The cells were washed twice in stain buffer and then resuspended in 150 μL of Stain Buffer containing 1:200 diluted DRAQ7 live/dead stain (Cell Signaling Technology, Danvers, USA). PE and DRAQ7 signals of the stained cells were detected by Miltenyi MACSQuant flow cytometer (Miltenyi Biotec, Auburn, USA) using B2 and B4 channel respectively. Live cells were gated on DRAQ7 exclusion and the geometric mean fluorescence signals were determined for at least 10,000 live events collected. FlowJo software (Tree Star) was used for analysis. Data was plotted as the logarithm of antibody concentration versus mean fluorescence signals. Nonlinear regression analysis was performed by GraphPad Prism 6 (GraphPad Software, Inc.) and EC₅₀ values were calculated.

[2] = molecular target: T1, human FcγRIIB (NM_004001) expressed on …; test: cell-based or functional assay
FcγRIIB protein = molecular target: T2, FcγRIIB protein; test: cell-based or functional assay
FcγRIIA protein = molecular target: T3, FcγRIIA protein; test: cell-based or functional assay
[3] = molecular target: T4, human FcγRIIA (NM_021642) expressed on …; test: cell-based or functional assay
[4] = molecular target: T7, human FcγRIIIA (NM_000569) expressed on cells (human, UniProt P08637 17-254); test: cell-based or functional assay
T7 sequence (P08637 17-254 limits assumed): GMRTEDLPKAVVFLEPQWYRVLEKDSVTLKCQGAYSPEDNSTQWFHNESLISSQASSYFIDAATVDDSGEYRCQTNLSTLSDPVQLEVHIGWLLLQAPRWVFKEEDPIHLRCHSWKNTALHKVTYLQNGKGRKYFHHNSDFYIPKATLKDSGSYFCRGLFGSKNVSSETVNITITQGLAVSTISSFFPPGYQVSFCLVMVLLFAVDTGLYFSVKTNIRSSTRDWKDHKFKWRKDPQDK

[5] = molecular target: T4, human FcγRIIA (NM_021642) expressed on …; test: flow cytometry; Expi293F cells transfected with FcγRIIA
Method: as §1, §2

[6] = molecular target: T1, human FcγRIIB (NM_004001) expressed on …; test: flow cytometry; Expi293F cells transfected with FcγRIIB
Method: as §1, §2

[7] = molecular target: T1, human FcγRIIB (NM_004001) expressed on …; test: flow cytometry; Raji cells (express predominantly FcγRIIB)
Method: as §2
Raji cell is a cell line derived from B cells that express predominantly FcγRIIB. The binding of mAbtyrins on Raji cells were investigated by flow cytometry assay described for testing mAbtyrin binding to FcγR. Binding of the mAbtyrins were detected by flow cytometry using a PE-labeled Goat F(ab′) against Human IgG(γ).

[8] = molecular target: T7, human FcγRIIIA (NM_000569) expressed on …; test: flow cytometry; Expi293F cells transfected with FcγRIIIA
Method: as §1, §2

[9] = molecular target: T5, human OX40 expressed on HEK-Blue: OX40 …; test: flow cytometry; HEK-Blue: OX40 cells
How it was run: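 HEK-Blue Null 1 cells stably transfected with human OX40 were blocked, then incubated with mAbtyrin for 1.5 h at 4 °C. Binding was detected with a PE anti-human IgG F(ab′)₂ secondary, gating on DRAQ7-excluding live cells and taking geometric mean fluorescence. EC50 came from nonlinear regression versus log antibody concentration.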

Row | EC50 [1] [µg/mL] | % activity at 1 µg/ml with Raji cells (HEK-Blue: OX40 NF-κB reporter) [2] [%] | IFNγ production by activated CD4 T cells, plate-coated FcγRIIb (FcγRIIB protein) [pg/mL] | TNFα production by activated CD4 T cells, plate-coated FcγRIIb (FcγRIIB protein) [pg/mL] | IFNγ production by activated CD4 T cells, plate-coated FcγRIIA (FcγRIIA protein) [pg/mL] | TNFα production by activated CD4 T cells, plate-coated FcγRIIA (FcγRIIA protein) [pg/mL] | ADCP EC50 [3] [µg/mL] | ADCC (fold activation) at 1 µg/ml [4] [fold] | EC50 [5] [µg/mL] | EC50 [6] [µg/mL] | EC50 [7] [µg/mL] | EC50 [8] [µg/mL] | EC50 [9] [µg/mL] | Binder
1 | 0.397 | 76 | 177 | 37 | 125 | 33 | 0.0151 | 9 | 0.066 | 1 | 3.3 | 0.585 | 0.111 | OX40SF2IgG1_R2BS29_LC-C (bispecific antibody, mAbtyrin: wild-type IgG1 OX40SF2 with linker and R2BS29 FN3 domain at the C-terminus of the light chain; also called mAbtyrin) heavy: not shown light: DIQMTQSPSSLSASVGDRVTITCKASQDVGAAVAWYQQKPGKAPKLLIYWASTRHTGVPSRFSGSGSGTDFTLTISSLQPEDFATYYCQQYINYPLTFGGGTKVEIKRTVAAPSVFIFPPSDEQLKSGTASVVCLLNNFYPREAKVQWKVDNALQSGNSQESVTEQDSKDSTYSLSSTLTLSKADYEKHKVYACEVTHQGLSSPVTKSFNRGECGGGGSGGGGSGGGGSGGGGSMLPAPKNLVVSRVTEDSARLSWTAPDAAFDSFPIYYWEYRVGGEAIVLTVPGSERSYDLTGLKPGTEYFVYINGVKGGEESRPLSAIFTT
2 | 0.586 | 90 | 1370 | 250 | 1760 | 335 | 0.0318 | 9 | 0.063 | 0.968 | 1.27 | 0.448 | 0.193 | OX40SF2IgG1_R2BS29_HC-C (bispecific antibody, mAbtyrin: wild-type IgG1 OX40SF2 with linker and R2BS29 FN3 domain at the C-terminus of the heavy chain; also called mAbtyrin) heavy: not shown light: DIQMTQSPSSLSASVGDRVTITCKASQDVGAAVAWYQQKPGKAPKLLIYWASTRHTGVPSRFSGSGSGTDFTLTISSLQPEDFATYYCQQYINYPLTFGGGTKVEIKRTVAAPSVFIFPPSDEQLKSGTASVVCLLNNFYPREAKVQWKVDNALQSGNSQESVTEQDSKDSTYSLSSTLTLSKADYEKHKVYACEVTHQGLSSPVTKSFNRGEC
